Measured values taken from patent US20240247080A1, “GLP1/GIP/NPY2 RECEPTOR TRIPLE AGONISTS” (Boehringer Ingelheim International GmbH, priority 2022, published 2024).
Starred links: 1 amine or outer side, 2 acyl side, 3 side chain; linkers in the order of their positions; H or OH if unused. Non-standard residues stand in square brackets, D forms with d. Groups on a side chain read outwards from the residue. No end group written: not given here. *: point of attachment. C20 diacid = O=C(O)CCCCCCCCCCCCCCCCCCC(=O)*; C18 diacid = O=C(O)CCCCCCCCCCCCCCCCC(=O)*; γGlu = O=C(O)[C@H](CCC(=O)[*:2])N[*:1]; εLys = N[C@@H](CCCCN[*:1])C(=O)[*:2]; AEEA = NCCOCCOCC(=O)O; Aib = CC(C)(N)C(=O)O

T1: human GIP receptor (human, UniProt P48546 22-466)
T1 sequence (looked up): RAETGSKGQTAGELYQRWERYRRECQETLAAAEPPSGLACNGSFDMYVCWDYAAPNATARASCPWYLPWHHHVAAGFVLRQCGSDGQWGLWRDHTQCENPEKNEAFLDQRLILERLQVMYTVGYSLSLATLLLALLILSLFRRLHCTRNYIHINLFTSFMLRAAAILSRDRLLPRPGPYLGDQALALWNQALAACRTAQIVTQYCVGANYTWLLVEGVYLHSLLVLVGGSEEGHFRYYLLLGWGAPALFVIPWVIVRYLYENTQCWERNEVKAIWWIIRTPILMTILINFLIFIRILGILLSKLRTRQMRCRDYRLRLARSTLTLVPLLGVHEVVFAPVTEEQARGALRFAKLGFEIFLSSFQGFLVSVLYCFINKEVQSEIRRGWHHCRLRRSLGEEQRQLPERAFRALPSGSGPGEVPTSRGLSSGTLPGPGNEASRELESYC

T2: human neuropeptide Y2 (NPY2) receptor (human, UniProt P49146 1-381)
T2 sequence (looked up): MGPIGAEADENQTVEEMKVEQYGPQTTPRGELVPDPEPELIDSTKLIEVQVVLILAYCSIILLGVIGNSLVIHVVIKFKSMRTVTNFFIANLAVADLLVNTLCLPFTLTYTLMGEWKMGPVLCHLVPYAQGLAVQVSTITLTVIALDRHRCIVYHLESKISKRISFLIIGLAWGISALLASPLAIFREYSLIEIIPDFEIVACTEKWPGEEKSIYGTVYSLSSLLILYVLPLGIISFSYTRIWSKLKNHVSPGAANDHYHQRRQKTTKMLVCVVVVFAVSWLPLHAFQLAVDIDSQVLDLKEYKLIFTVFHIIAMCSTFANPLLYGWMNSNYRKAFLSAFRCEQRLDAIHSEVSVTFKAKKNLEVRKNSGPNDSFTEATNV


What was measured:
Experiment in all cases: cell-based or functional assay
[1] = target: human GLP-1 receptor (human, UniProt P43220 24-463)
[2] = target: T1, human GIP receptor
[3] = target: T2, human neuropeptide Y2 (NPY2) receptor

Binder | EC50, CreLuc assay, 0.5% hP [1] | EC50, CreLuc assay, 100% hP [1] | EC50, CreLuc assay, 0.5% hP [2] | EC50, CreLuc assay, 100% hP [2] | EC50, CreLuc assay, 0.5% hP [3] | EC50, CreLuc assay, 100% hP [3]
Y[Aib]EGTFTSDYSI[Aib]LEKQAQ[Aib]AFVQWLIK([AEEA-AEEA-Glu-Glu-Glu-Glu-C18 diacid])GGPESGASLRHYYNWLTRQRY-NH2 (also: TFA salt) [Compound 52] | 0.09 nM | 3.17 nM | 0.12 nM | 0.65 nM | 18.7 nM | 93.5 nM
Y[Aib]EGTFTSDYSI[Aib]LEKQAQ[Aib]AFVQWLIKGGQRYYASLRHYYNWLTRQRY-NH2 (not fully specified (residue 28); also: TFA salt) [Compound 6] | 0.9 nM | 42.8 nM | 2.99 nM | 31.1 nM | 16.9 nM | 86.7 nM
Y[Aib]EGTFTSDYSI[Aib]LEEEAQ[Aib]AFVQWLIK([εLys-εLys-γGlu-γGlu-γGlu-γGlu-γGlu-C20 diacid])GGPSSGASLRHYYNWLTRQRY-NH2 (also: TFA salt) [Compound 7] | 0.13 nM | 1.58 nM | 0.23 nM | 0.63 nM | 16.9 nM | 36.7 nM
YXEGTFTSDYSIXLEKEAQXKFVEWLIKGGPSSGASLRHYYNWLTRQRY (Aib at 2, 13, 20; K28 side chain: C20DA-gGlu-gGlu-gGlu-gGlu-gGlu-gGlu-eLys; C-terminal NH2) [Compound 46] | 0.21 nM | 5.94 nM | 0.2 nM | 1.21 nM | 10.2 nM | 36 nM
YXEGTFTSDYSIXLEKQAQXAFVQWLIKGGPSSGVSLRHYYNWLTRQRY (Aib at 2, 13, 20; K28 side chain: C20DA-gGlu-gGlu-gGlu-gGlu-gGlu-gGlu-eLys; C-terminal NH2) [Compound 47] | 0.07 nM | 1.14 nM | 0.25 nM | 0.73 nM | 7.9 nM | 30.5 nM
YXEGTFTSDYSIXLEKQAQXAFVEWLIKGGPSSGESXRHYYNWLTRQRY (Aib at 2, 13, 20, 37; K28 side chain: C20DA-gGlu-gGlu-gGlu-gGlu-gGlu-gGlu-eLys; C-terminal NH2) [Compound 49] | 0.12 nM | 2.08 nM | 0.07 nM | 1.25 nM | 12.5 nM | 36.8 nM
YXEGTFTSDYSIXLEKQAEXAFVQWLIKGGPSSGASLRHYYNWLTRQRY (Aib at 2, 13, 20; K28 side chain: C18DA-gGlu-gGlu-gGlu-gGlu-gGlu-gGlu-eLys; C-terminal NH2) [Compound 51] | 0.15 nM | 4.66 nM | 0.23 nM | 1.37 nM | 13.8 nM | 42.2 nM
YXEGTFTSDYSIXLEKQAQXAFVEWLIKGGPSEPQSIRHYYNWLTRQRY (Aib at 2, 13, 20; K28 side chain: C20DA-gGlu-gGlu-gGlu-gGlu-gGlu-gGlu-eLys; C-terminal NH2) [Compound 48] | 0.07 nM | 3.1 nM | 0.07 nM | 0.68 nM | 9.77 nM | 35.2 nM
YXEGTFTSDYSIXLEKQAQXAFVEWLIKGGPSSYESLRHYYNWLTRQRY (Aib at 2, 13, 20; K28 side chain: C20DA-gGlu-gGlu-gGlu-gGlu-gGlu-gGlu-eLys; C-terminal NH2) [Compound 50] | 0.13 nM | 3.75 nM | 0.12 nM | 1.47 nM | 11.8 nM | 52.5 nM

The remaining lines, values ahead:

EC50, CreLuc assay, 0.5% hP [1] | EC50, CreLuc assay, 100% hP [1] | EC50, CreLuc assay, 0.5% hP [2] | EC50, CreLuc assay, 100% hP [2] | EC50, CreLuc assay, 0.5% hP [3] | EC50, CreLuc assay, 100% hP [3] | Binder
0.05 nM | 2 nM | 0.24 nM | 0.31 nM | 10.2 nM | 22.8 nM | Y[Aib]EGTFTSDYSI[Aib]LEKQAQ[Aib]AFVQWLIK([AEEA-AEEA-γGlu-γGlu-γGlu-γGlu-C18 diacid])GGPESGASLRHYYNWLTRQRY-NH2 (also: TFA salt) [Compound 58]
0.25 nM | 8.97 nM | 0.27 nM | 1.02 nM | 27.2 nM | 48.8 nM | Y[Aib]EGTFTSDYSI[Aib]LEKQAQ[Aib]EFVEWLIK([AEEA-AEEA-γGlu-γGlu-γGlu-γGlu-C18 diacid])GGPSSPASLRHYYNWLTRQRY-NH2 (also: TFA salt) [Compound 56]
0.14 nM | 6.45 nM | 0.18 nM | 1.17 nM | 9.74 nM | 33.6 nM | Y[Aib]EGTFTSDYSI[Aib]LEKQAQ[Aib]AFVQWLIK([AEEA-AEEA-γGlu-γGlu-γGlu-γGlu-C18 diacid])GGPEEPASLRHYYNWLTRQRY-NH2 (also: TFA salt) [Compound 57]
0.08 nM | 1.69 nM | 0.33 nM | 0.35 nM | 7.43 nM | 23.1 nM | Y[Aib]EGTFTSDYSI[Aib]LEKQAQ[Aib]AFVQWLIK([εLys-γGlu-γGlu-γGlu-γGlu-γGlu-C18 diacid])GGPESGASLRHYYNWLTRQRY-NH2 (also: TFA salt) [Compound 60]
0.22 nM | 7.71 nM | 0.24 nM | 1.4 nM | 14 nM | 60.1 nM | Y[Aib]EGTFTSDYSI[Aib]LEKQAE[Aib]AFVQWLIKGGPSEPASLRHYYNWLTRQRY-NH2 (not fully specified (residue 28); also: TFA salt) [Compound 54]
0.09 nM | 4.17 nM | 0.12 nM | 0.82 nM | 16 nM | 53.4 nM | Y[Aib]EGTFTSDYSI[Aib]LEKQAQ[Aib]AFVQWLIKGGPESGASLRHYYNWLTRQRY-NH2 (not fully specified (residue 28); also: TFA salt) [Compound 55]
0.09 nM | 3.46 nM | 0.13 nM | 1.38 nM | 13.2 nM | 50.6 nM | YXEGTFTSDYSIXLEKQAQXAFVQWLIKGGPESGASLRHYYNWLTRQRY (Aib at 2, 13, 20; K28 side chain: C18DA-gGlu-gGlu-gGlu-gGlu-gGlu; C-terminal NH2) [Compound 53]
0.39 nM | 8.81 nM | 0.49 nM | 5.75 nM | 10.8 nM | 29.9 nM | Y[Aib]EGTFTSDYSI[Aib]LEKQAQ[Aib]AFVQWLIKGGPSYYASLRHYYNWLTRQRY-NH2 (not fully specified (residue 28); also: TFA salt) [Compound 59]
